Assay: yeast display, Sf9 membrane polyspecificity reagent, FACS + sequencing; frameworks hold sequencing errors
How it was run: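 Nanobodies from a synthetic yeast display library (Saccharomyces cerevisiae BJ5465), induced 36–48 hours with galactose, were stained 1 hour at 4 °C with 10% biotinylated, detergent-solubilized Sf9 membrane reagent, enriched on streptavidin microbeads, then FACS-sorted. Anti-HA (expression) and streptavidin (reagent binding) fluorescence set low and high (top ~1%) gates. Polyreactivity labels come from the gate of origin. Genes were colony-PCR amplified, MiSeq 2 × 250 sequenced and filtered by CDR length.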
For “QFQLVESWVGLVQAGGSLRLSCAASGSTFPYYAIGWYRQAPGKERELVASIRKRGGGTYYADSVKGRFTISRDNAKNTVYLQMNSLKPEDTAVYYCAVRVYQFRFTGYDYWGHGTQVTVSS”, the “polyreactivity (PSR sort gate)” value was “high polyreactivity”.
In the case of “QGKRVESGRGLVQAGGILRLSCAASGRTFYYYAMGWYRQSPGKERELVASITWSGGSTYYADSVKGRFTISRDNAKNTVYLQMNSLKPEDTAVYYCAARFVYYGVDYWGQGTQVTGSS”, the “polyreactivity (PSR sort gate)” value is reported as “high polyreactivity”.
With “QGLLVQSGGGLVQAGGSLRLSCAASGFTFRFYAMLWYRQAPGNERELVAAISSTGSTNYADSVKARCTISRDNAKNTVYLQKNSLKPEDTAVYYCNTDYYNRYYDWLIWYYYWGQGTQVTVSS” the “polyreactivity (PSR sort gate)” value was “high polyreactivity”.
For “QGQHVESGGGLVQAGGSLRLSCAASGLTFWVYAMGWYRQPRGKERELVAVITNGGRTNYADSVKGRFTISRDNAKNTVYLLMNSLKPEDSAVYYCARPNLLSGDYWGQGTQVTVSS”, the “polyreactivity (PSR sort gate)” value was “high polyreactivity”.
For “QGQHVETGGGLVQAGCTLRLSCAASGFTCGNYAMGWYRQAPGKGRELVAAIDSDGSTDYADAVKGRFTISRDNAKNTVYLQMNSLKPEDTAVYYCAARFDYGPRGCDYWGPGTQVTVSS”, the “polyreactivity (PSR sort gate)” value was “low polyreactivity”.
For “QGQIVESWGGLVQAGGSLRLSCAASGTFFTYMGWYRQAPGKERELVAAIRNGGSTNYADSVKGRCTISGDNAKNTVYLQMHSLKPEDTAVYYCAARVTYSRGYRGGSRTKYDSWGQGTQVTVSS”, the “polyreactivity (PSR sort gate)” value was “low polyreactivity”.
For “QGQLVESAGGLVQAGGSLRLSCAAYGRIFGINAMGWYRQAPGKERELVAASTGGGSTYADSVKGRVTISRDNAKNTVYLHMNSLKPEATAVYYCAARKIWSSIAYYYWGQGTQVTVSS”, the “polyreactivity (PSR sort gate)” value was “low polyreactivity”.
With “QGQLVESGGALVQAGGSLRLSCAASGFILPIYAMAWYRQAPGKEREIVAAITWTGGSTYYADSVKGRFTISRDNAKNTVYLQMISLKPEDTAVYYCNVVSDIRLYYRYAYDYWGQGTQVTVSS” the “polyreactivity (PSR sort gate)” value was “high polyreactivity”.
In the case of “QGQLVESGGALVQAGGSLRLSCAASGGTFFYYVMGWYRQAPGQERELVAAITGAGGSTYYADSVKGRFTSSRDNAKNTVYLQMNSLKPEDTAVYYCAADVSFTQSDGRLAEYGYWGQGTQVTVSS”, the “polyreactivity (PSR sort gate)” value is reported as “low polyreactivity”.
For “QGQLVESGGGEVQAGGSLRLSCAASGFTFGSNAMGWYRPAPGKERELVAAISSTGSTYYADSVKGRFTLSRDNAKNTVYVQMNSLKPEDPAVYYCNADSDTPRYDYWGQGTQVTVSS”, the “polyreactivity (PSR sort gate)” value was “low polyreactivity”.
In the case of “QGQLVESGGGLGQAGGSLRLSCAASGSIFQPNDMGWYRQAPGKERELVATISTGGTTNYADSVKGRFTISRDNAKNTVYLQMNSLKPDDTAVYYCATDRTFTISNYDYWGQGTQVTVSS”, the “polyreactivity (PSR sort gate)” value is reported as “low polyreactivity”.
In the case of “QGQLVESGGGLVHAGVSLRLSCAASGSTFQPYAMGWNRQAPGKERELVAAINWSGGGTYYADSVKGRFTISRDNAKNTVYLQMNSLKPVDTAVYYCAAEVYTYWALNTWRYDYWGQGTQVTVSS”, the “polyreactivity (PSR sort gate)” value is reported as “high polyreactivity”.
In the case of “QGQLVESGGGLVQAGASLRLSCAASGFIFAHYTMGWYRQAPGKARELVAAITRAGGSTFYADSVKGRFTISRDNAKNTVYLQRNSLKPEDTAVYYCNRGNRWNFDSWGQGTQVTVSS”, the “polyreactivity (PSR sort gate)” value is reported as “high polyreactivity”.
In the case of “QGQLVESGGGLVQAGGILLLSCAASGIIFLYYAMGWYRQAPGKERELVAAITSGGSTYYADSVKGRFTISRDNAKNTVYLQMNSLKPEDTAVYYCNAPYHGREYEWGQGTQVTVSS”, the “polyreactivity (PSR sort gate)” value is reported as “high polyreactivity”.
With “QGQLVESGGGLVQAGGNLRLSCAASGSIFSDYTMGWYRQAPGKERELVAVITLSAGSTYYADSVKGRFTISRDNAKNTVYLQMNSLKPEDTAVYYCAADGWYYFGSGVFEYDYWGHGTQVTVSS” the “polyreactivity (PSR sort gate)” value was “low polyreactivity”.
In the case of “QGQLVESGGGLVQAGGSLRISCAASGRIYRINAMGWYRQAPGKERELVANITSGGGSTYADSVKGRFTISRDNAKNTVYLQMNSRKPEDTAVYYCAARSRIGRYTYDYWGQGTQVTVSS”, the “polyreactivity (PSR sort gate)” value is reported as “high polyreactivity”.
For “QGQLVESGGGLVQAGGSLRLSCAASAFIFDDNTMGWYRQAPGKERELGAAISYSAGSTYYADSVKGRFTISRDNAKNTVYLQMNSLKPEDTAVYSCAAQHYWVTSYLSSYDYWGQGTQVTLSS”, the “polyreactivity (PSR sort gate)” value was “low polyreactivity”.
With “QGQLVESGGGLVQAGGSLRLSCAASGFIFRYYTMGWYRQAPGKERELVATITSGGSTYYADSVKGRFTISRDNAKNTVYLQMNSLKPEDTAVYYCNADTLGGKYVYQDRRGFDYWGQGTQVSVSS” the “polyreactivity (PSR sort gate)” value was “high polyreactivity”.
With “QGQLVESGGGLVQAGGSLRLSCAASGFIFVVYAMGWYRQAPGKERELVAAITFSGGSTYYADSVKGRFTISRDNAKNTVYLQMISLKPEVTAVYYCAAAEHDREFDSWGHGTQVTVSS” the “polyreactivity (PSR sort gate)” value was “low polyreactivity”.
For “QGQLVESGGGLVQAGGSLRLSCAASGFTFQYYAMGWSRQAPGKERELVAAISWSGGRTYYADSVKGRFTISRDNAKNTESLQMNSLKPEDTAVYYCAASYIVYPARYEDEGDYWGQGTQVTVSS”, the “polyreactivity (PSR sort gate)” value was “high polyreactivity”.
In the case of “QGQLVESGGGLVQAGGSLRLSCAASGGIFLGNAMGWYRQAPGKERELVASITRGGDTSYADSVKGRFTISRDNAKNTVYLQMNCLKPEDTAVYYCNADYYSVVEYDYWGQGTQLTVSS”, the “polyreactivity (PSR sort gate)” value is reported as “low polyreactivity”.
In the case of “QGQLVESGGGLVQAGGSLRLSCAASGITFGDNAMGWYRQAPGKERELVAAISSGGSTDYADSVKGRFTISRDNAKNTVYLQMNSLKPEDTAVYYCAFDWVSVPEYDYWGQGTQVTVSS”, the “polyreactivity (PSR sort gate)” value is reported as “low polyreactivity”.

Reference: the nanobody polyreactivity screen of Harvey et al. (2022)
